Measurements published in IntAct's records for PubMed 18498651.

B1: Double-stranded RNA-binding protein Staufen homolog 1 (Homo sapiens), O95793-2 (parent)
chain: MKLGKKPMYKPVDPYSRMQSTYNYNMRGGAYPPRYFYPFPVPPLLYQVELSVGGQQFNGKGKTRQAAKHDAAAKALRILQNEPLPERLEVNGRESEEENLNKSEISQVFEIALKRNLPVNFEVARESGPPHMKNFVTKVSVGEFVGEGEGKSKKISKKNAAIAVLEELKKLPPLPAVERVKPRIKKKTKPIVKPQTSPEYGQGINPISRLAQIQQAKKEKEPEYTLLTERGLPRRREFVMQVKVGNHTAEGTGTNKKVAKRNAAENMLEILGFKVPQAQPTKPALKSEEKTPIKKPGDGRKVTFFEPGSGDENGTSNKEDEFRMPYLSHQQLPAGILPMVPEVAQAVGVSQGHHTKDFTRAAPNPAKATVTAMIARELLYGGTSPTAETILKNNISSGHVPHGPLTRPSEQLDYLSRVQGFQVEYKDFPKNNKNEFVSLINCSSQPPLISHGIGKDVESCHDMAALNILKLLSELDQQSTEMPRTGNGPMSVCGRC

Variants of: B1
Conditions: with gag_hv1h2 gag

Variant | effect of a mutation on the interaction
F135A | disrupting interaction
